Assay results as given in patent US20220396813.
Residue numbers refer to the chain shown, from its start.

Assays:
Test in all cases: cell_activity
[1] = system: T1, Rec29 WP_089415106.1 (Pantoea agglomerans); details: HEK293T inversion; background 1.305
T1 sequence: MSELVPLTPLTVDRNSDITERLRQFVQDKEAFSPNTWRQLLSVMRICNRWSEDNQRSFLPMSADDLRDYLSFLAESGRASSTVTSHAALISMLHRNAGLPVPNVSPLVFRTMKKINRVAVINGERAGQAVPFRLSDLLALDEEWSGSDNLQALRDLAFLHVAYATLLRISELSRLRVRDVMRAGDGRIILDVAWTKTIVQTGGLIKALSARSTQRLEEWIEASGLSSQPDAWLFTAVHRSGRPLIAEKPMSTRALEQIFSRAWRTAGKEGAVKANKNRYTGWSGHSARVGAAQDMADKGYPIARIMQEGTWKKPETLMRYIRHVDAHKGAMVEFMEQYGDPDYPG

Rec142 = target: T2, Rec142 (UniProt A0A0J6VB22); details: HEK293T inversion; background 4.4
T2 sequence: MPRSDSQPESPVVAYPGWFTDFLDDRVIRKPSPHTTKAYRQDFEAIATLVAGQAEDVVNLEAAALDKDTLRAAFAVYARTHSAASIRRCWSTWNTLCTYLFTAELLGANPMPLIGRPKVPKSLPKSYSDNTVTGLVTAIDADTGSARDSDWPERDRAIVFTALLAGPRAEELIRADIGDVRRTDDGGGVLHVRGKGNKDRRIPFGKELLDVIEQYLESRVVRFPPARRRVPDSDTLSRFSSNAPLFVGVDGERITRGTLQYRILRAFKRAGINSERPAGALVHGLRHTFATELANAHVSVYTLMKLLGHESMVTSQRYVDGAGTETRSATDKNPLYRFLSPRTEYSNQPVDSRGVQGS

Rec19 WP_058958135.1 = system: T3, Rec19 WP_058958135.1; details: HEK293T inversion; background 0.0065
T3 sequence: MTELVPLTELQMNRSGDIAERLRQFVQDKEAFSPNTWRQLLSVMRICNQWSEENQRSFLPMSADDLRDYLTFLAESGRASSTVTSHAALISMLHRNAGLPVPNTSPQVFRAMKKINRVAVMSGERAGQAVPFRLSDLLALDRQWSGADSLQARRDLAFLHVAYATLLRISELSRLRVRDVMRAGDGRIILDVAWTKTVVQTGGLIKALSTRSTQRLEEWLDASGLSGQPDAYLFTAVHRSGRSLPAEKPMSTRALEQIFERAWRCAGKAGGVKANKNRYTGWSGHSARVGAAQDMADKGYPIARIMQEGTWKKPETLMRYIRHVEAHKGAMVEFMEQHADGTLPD

[2] = system: T4, Rec20 WP_090967054.1 (Pantoea sp. OV426); details: HEK293T inversion; background 4.93
T4 sequence: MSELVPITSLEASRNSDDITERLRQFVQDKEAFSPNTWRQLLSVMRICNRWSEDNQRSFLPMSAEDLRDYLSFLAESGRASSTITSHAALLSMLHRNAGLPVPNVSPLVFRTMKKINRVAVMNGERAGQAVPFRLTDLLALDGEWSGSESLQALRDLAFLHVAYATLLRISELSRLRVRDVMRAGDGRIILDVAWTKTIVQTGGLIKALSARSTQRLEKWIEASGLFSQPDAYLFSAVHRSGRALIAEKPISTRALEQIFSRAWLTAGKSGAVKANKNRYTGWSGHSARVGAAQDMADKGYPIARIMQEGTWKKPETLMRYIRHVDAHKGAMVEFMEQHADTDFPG

[3] = system: T5, Rec30 WP_022624268.1 (Pantoea sp.); details: HEK293T inversion; background 1.305
T5 sequence: T1 sequence with G98E, E142K

[4] = system: T6, Rec31 WP_046103089.1 (Pantoea anthophila); details: HEK293T inversion; background 1.305
T6 sequence: T3 sequence with S135T, G341D, T342A

[5] = system: T7, Rec32 WP_069027120.1 (Pantoea agglomerans); details: HEK293T inversion; background 6.6
T7 sequence: T1 sequence with R49C, E75Q, S135T, E142K, S145A, A210T, L225I, L244Q, A254S, G339S

[6] = system: T8, Rec33 WP_010671927.1 (Pantoea sp.); details: HEK293T inversion; background 6.6
T8 sequence: T1 sequence with E142K

[7] = system: T9, Rec34 WP_109653747.1 (Pantoea agglomerans); details: HEK293T inversion; background 6.6
T9 sequence: T1 sequence with S135T, E142K, S145A, A210T, L225I, A254S, G339S

[8] = system: T10, Rec35 WP_134161939.1 (Pantoea allii); details: HEK293T inversion; background 6.6
T10 sequence: T1 sequence with L10Q, S135T, E142K, S145A, A210T, L225I, A231V, A254S, G339S

[9] = system: T11, Rec36 WP_111534863.1 (Pantoea sp.); details: HEK293T inversion; background 6.6
T11 sequence: T1 sequence with G345D

[10] = system: T12, Rec37 WP_128085508.1 (Pantoea deleyi); details: HEK293T inversion; background 6.6
T12 sequence: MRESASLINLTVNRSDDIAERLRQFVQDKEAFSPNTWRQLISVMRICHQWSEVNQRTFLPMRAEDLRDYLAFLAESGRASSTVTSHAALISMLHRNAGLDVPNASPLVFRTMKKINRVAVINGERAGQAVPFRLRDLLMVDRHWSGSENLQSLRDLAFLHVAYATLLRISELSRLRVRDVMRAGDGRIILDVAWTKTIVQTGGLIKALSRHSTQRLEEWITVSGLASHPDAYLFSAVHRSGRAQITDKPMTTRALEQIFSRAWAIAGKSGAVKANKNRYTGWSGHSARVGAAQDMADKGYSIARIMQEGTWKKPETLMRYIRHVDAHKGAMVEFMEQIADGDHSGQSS

[11] = system: T13, Rec38 WP_115764642.1 (Pantoea agglomerans); details: HEK293T inversion; background 6.6
T13 sequence: T1 sequence with T11M, S135T, E142K, S145A, D148E, A152S, A210T, L225I, A254S, G339S

[12] = system: T14, Rec39 WP_111138305.1 (Pantoea sp. ARC607); details: HEK293T inversion; background 6.6
T14 sequence: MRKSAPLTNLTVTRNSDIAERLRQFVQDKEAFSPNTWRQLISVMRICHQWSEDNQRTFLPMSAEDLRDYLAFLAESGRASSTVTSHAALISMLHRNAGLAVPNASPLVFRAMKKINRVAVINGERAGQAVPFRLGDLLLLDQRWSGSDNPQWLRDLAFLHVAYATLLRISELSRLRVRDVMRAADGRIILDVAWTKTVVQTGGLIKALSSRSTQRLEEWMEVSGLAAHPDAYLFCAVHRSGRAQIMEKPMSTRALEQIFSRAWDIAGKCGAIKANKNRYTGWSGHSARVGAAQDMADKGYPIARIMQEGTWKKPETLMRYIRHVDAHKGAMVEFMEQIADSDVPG

[13] = system: T15, Rec15 XP_012333305.1 (Plasmodium fragile); details: HEK293T inversion; background 2.178
T15 sequence: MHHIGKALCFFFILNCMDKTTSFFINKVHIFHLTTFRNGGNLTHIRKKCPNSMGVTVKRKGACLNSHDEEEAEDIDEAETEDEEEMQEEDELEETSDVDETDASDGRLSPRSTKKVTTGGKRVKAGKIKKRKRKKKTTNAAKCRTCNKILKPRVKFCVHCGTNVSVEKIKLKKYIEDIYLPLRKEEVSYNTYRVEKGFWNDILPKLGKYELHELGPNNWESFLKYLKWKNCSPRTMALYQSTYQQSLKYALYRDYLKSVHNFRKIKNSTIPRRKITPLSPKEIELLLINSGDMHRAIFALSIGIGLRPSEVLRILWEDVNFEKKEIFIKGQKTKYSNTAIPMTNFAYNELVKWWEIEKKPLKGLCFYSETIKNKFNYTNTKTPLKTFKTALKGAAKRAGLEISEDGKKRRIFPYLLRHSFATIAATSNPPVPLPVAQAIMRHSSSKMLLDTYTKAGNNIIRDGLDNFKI

Rec82 = details: HEK293T inversion; background 5.03
Rec83 = details: HEK293T inversion; background 5.425

ATGACTTCGTATANNNNNNNNTATACGAAGTCAT (double strand) [Rec29 natural site]
activity [1]: 36.9 % GFP+

CCGTCATGGATANNNNNNNNTATCCATGAAGC (double strand) [Rec142 natural site]
activity (Rec142): 20.2 % GFP+

TGACTTCGTATANNNNNNNNTATACGAAGCCA (double strand) [Rec19-20 natural site]
activity (Rec19 WP_058958135.1): 63.6 % GFP+ | activity [2]: 70.7 % GFP+

TGACTTCGTATANNNNNNNNTATACGAAGTCA (double strand) [Rec30-39 natural site]
activity [3]: 32.1 % GFP+ | activity [4]: 21.3 % GFP+ | activity [5]: 60 % GFP+ | activity [6]: 51 % GFP+ | activity [7]: 50.6 % GFP+ | activity [8]: 52 % GFP+ | activity [9]: 44.2 % GFP+ | activity [10]: 40 % GFP+ | activity [11]: 44.5 % GFP+ | activity [12]: 42 % GFP+

TGCATATACATANNNNNNNNTATATATATGTA (double strand) [Rec15 natural site]
activity [13]: 5.91 % GFP+

TGTGACTCCAGANNNNNNNNNTCTGGAGTCATA (double strand) [Rec82-83 natural site]
activity (Rec82): 59 % GFP+ | activity (Rec83): 65.2 % GFP+
